The target in one experiment is SRP (Escherichia coli) (UniProt P0AGD7). As to conditions: cited from earlier work.
In experiment [1] the target is SRP(MDCC): signal recognition particle with MDCC at position 235 in the G domain of Ffh (Escherichia coli) (UniProt P0AGD7). Description: other fluorescence titration; as a22 (Lep75-RNC), with SecYEG in nanodiscs (300 nM); apparent.
Experiment [2] shares this target. The experiment is described as follows: stopped-flow FRET kinetics; Lep50-RNC (30 nM) in complex with SRP(MDCC) (500 nM) rapidly mixed with FtsY(Bpy) (1 µM); no SecYEG.
The target is the same in experiment [3]. Description: other fluorescence titration; SRP(MDCC) 25 nM titrated with FtsY(Bpy); SRP bound to Lep50-RNC (10 nM); buffer A, 25 °C; apparent.
For experiment [4] the target is unchanged. The experiment is described as follows: stopped-flow FRET kinetics; 70S ribosomes (50 nM) in complex with SRP(MDCC) (500 nM) rapidly mixed with FtsY(Bpy) (1 µM); acceptor (Bpy) fluorescence; no SecYEG.
For experiment [5] the target is unchanged. Description: other fluorescence titration; equilibrium titration monitored by FRET; SRP(MDCC) 25 nM titrated with FtsY(Bpy); SRP bound to 70S ribosomes (500 nM); buffer A, 25 °C; apparent.
Experiment [6] has as its target (Bpy)Lep50-RNC: stalled ribosome-nascent-chain complex with a nascent chain of leader peptidase (Lep) of 50 amino acids, Bodipy FL at the N-terminal methionine (Escherichia coli) (UniProt P00803). The experiment is described as follows: other fluorescence titration; as a5, in the presence of FtsY (1 µM) and SecY39EG in nanodiscs; apparent.
Experiment [7] concerns the target (Bpy)Lep75-RNC: stalled ribosome-nascent-chain complex with a nascent chain of leader peptidase (Lep) of 75 amino acids, Bodipy FL at the N-terminal methionine (Escherichia coli) (UniProt P00803). Described as above.
In experiment [8] the target is Lep50- or Lep75-RNC. Description: other fluorescence titration; as a5, in the presence of saturating amounts of SecYEG in nanodiscs; apparent.
Experiment [9] concerns the target (Bpy)Lep50-RNC: stalled ribosome-nascent-chain complex with a nascent chain of leader peptidase (Lep) of 50 amino acids, Bodipy FL at the N-terminal methionine (Escherichia coli) (UniProt P00803). Description: other fluorescence titration; as a5, RNC in complex with FtsY (1 µM) and SecYEG in nanodiscs (increasing to saturating); apparent.
Experiment [10] deals with (Bpy)Lep75-RNC: stalled ribosome-nascent-chain complex with a nascent chain of leader peptidase (Lep) of 75 amino acids, Bodipy FL at the N-terminal methionine (Escherichia coli) (UniProt P00803). The description is as above.
Experiment [11] deals with Lep50- or Lep75-RNC. The experiment is described as follows: other fluorescence titration; equilibrium titration monitored by FRET; (Bpy)Lep-RNC 4 nM titrated with SRP(Alx), GDPNP 500 µM, buffer A, 25 °C; apparent; without SecYEG.
Another experiment deals with FtsY (Escherichia coli) (UniProt P10121). The conditions noted are these: cited from earlier work.

Chain of SecYEG (P0AGA2 whole entry): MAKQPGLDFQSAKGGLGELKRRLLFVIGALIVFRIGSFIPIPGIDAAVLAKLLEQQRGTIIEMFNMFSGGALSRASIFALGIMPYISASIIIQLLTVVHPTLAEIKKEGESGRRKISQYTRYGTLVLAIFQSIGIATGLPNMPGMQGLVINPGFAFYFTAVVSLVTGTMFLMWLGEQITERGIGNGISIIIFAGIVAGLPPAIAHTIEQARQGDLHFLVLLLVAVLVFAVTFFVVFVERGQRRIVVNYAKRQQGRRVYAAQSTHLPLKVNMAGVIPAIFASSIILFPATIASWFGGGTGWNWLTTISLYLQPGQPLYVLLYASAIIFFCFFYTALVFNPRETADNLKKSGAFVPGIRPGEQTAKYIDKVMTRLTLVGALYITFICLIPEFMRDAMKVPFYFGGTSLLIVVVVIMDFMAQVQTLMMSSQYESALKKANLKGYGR
Chain of SecYEG (P0AG96 whole entry, further chain): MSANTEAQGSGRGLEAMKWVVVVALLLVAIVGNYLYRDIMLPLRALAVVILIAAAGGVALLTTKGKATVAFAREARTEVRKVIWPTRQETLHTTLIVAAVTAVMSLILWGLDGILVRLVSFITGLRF
Chain of SecYEG (P0AG99 whole entry, further chain): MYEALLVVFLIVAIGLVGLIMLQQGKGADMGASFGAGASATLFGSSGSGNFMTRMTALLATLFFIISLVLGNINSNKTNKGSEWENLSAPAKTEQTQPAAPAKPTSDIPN
Chain of FtsY (P10121 2-497): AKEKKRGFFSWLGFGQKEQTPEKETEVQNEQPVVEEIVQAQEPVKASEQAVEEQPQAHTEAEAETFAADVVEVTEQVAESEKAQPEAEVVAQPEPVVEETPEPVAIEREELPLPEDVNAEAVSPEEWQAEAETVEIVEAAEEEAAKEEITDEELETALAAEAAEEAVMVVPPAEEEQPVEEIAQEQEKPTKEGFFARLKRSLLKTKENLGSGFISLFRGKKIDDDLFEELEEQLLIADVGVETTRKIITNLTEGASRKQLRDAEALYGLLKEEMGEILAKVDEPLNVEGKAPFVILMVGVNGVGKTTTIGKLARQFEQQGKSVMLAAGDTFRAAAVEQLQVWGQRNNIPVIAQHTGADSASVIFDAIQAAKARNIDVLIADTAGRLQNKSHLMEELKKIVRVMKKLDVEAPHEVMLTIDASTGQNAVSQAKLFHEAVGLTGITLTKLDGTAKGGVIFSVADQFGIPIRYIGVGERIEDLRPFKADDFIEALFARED

FtsY (from UniProt P10121): the Kd in the experiment with SRP (Escherichia coli) is 0.5 µM.
As for “FtsY(Bpy): SRP receptor FtsY with Bodipy FL at position 487 in the N domain (from UniProt P10121 1-497)”, the values for the Kd in experiment [1], in experiment [3] and in [5] were 0.04 µM, 0.005 to 0.01 µM and 0.05 µM, respectively. Also, the fold increase of the appKd with SecYEG against without SecYEG in experiment [1] turned out to be 10 fold. This substance registered an average half-life time of association in experiment [2] of 1 s. In [4], this substance yielded a half-life time of association of 15 s.
Consider “SRP(Alx): signal recognition particle with Alexa555 at position 430 in the M domain of SRP protein Ffh (from UniProt P0AGD7 1-453) (complex)”, for which the fold change of the apparent affinity with SecY39EG–FtsY in [6] and in experiment [7] was under 5 fold throughout. Further, the values for the Kd (in the experiment with Lep50- or Lep75-RNC [8]; in experiment [9]; with Lep50- or Lep75-RNC [11]) were 0.015 to 0.02 µM, 0.05 µM and 0.003 to 0.004 µM, respectively. For the same substance, the α (factor by which the appKd of SRP binding is increased by SecYEG–FtsY) in [10] is 4.
For the substance SecYEG (from UniProt P0AGA2), the Kd with FtsY (Escherichia coli) was 0.2 µM.

The values above are taken from paper PMC6028451.
